Experimental data from paper doi:10.1101/2023.05.10.540157 (bioRxiv, 2023).
Read-outs that look alike come from different tables or passages of the source.

Assays:
[1] = target: T1, mineralocorticoid receptor (MR), NanoBiT fusion LgBiT-MR (UniProt P08235 1-984); assay: split reporter
T1 sequence: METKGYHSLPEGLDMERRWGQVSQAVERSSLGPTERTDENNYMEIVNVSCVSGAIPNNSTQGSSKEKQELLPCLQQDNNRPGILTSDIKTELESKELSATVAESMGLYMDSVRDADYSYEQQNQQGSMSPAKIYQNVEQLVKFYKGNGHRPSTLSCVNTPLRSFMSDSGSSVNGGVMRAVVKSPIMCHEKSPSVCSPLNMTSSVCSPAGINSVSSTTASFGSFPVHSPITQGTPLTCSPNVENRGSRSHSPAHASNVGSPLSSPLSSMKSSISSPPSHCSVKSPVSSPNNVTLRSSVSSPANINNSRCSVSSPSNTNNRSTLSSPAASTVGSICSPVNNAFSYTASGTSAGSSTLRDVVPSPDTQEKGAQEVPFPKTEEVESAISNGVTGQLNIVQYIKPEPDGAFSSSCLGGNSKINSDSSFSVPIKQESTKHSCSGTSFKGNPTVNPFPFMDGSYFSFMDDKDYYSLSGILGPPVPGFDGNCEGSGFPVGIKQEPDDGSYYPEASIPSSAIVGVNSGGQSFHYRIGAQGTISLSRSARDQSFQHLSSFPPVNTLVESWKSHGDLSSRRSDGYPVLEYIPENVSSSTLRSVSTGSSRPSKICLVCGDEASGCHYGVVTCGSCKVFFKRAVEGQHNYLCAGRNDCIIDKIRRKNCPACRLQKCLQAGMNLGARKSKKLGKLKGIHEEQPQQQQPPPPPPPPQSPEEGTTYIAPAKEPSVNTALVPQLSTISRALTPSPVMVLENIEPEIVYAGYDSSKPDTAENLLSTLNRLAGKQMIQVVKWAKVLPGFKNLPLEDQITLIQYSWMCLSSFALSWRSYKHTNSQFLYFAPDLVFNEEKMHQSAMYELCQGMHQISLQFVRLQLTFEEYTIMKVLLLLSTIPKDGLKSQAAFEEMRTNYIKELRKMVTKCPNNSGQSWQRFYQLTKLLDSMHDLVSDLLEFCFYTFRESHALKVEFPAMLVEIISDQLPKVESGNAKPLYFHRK

[2] = target: T1, mineralocorticoid receptor (MR), …; assay: split reporter; remark: listed apart in the source

B1: glucocorticoid receptor (GR), NanoBiT fusion GR-SmBiT (receptor)
chain: MDSKESLTPGREENPSSVLAQERGDVMDFYKTLRGGATVKVSASSPSLAVASQSDSKQRRLLVDFPKGSVSNAQQPDLSKAVSLSMGLYMGETETKVMGNDLGFPQQGQISLSSGETDLKLLEESIANLNRSTSVPENPKSSASTAVSAAPTEKEFPKTHSDVSSEQQHLKGQTGTNGGNVKLYTTDQSTFDILQDLEFSSGSPGKETNESPWRSDLLIDENCLLSPLAGEDDSFLLEGNSNEDCKPLILPDTKPKIKDNGDLVLSSPSNVTLPQVKTEKEDFIELCTPGVIKQEKLGTVYCQASFPGANIIGNKMSAISVHGVSTSGGQMYHYDMNTASLSQQQDQKPIFNVIPPIPVGSENWNRCQGSGDDNLTSLGTLNFPGRTVFSNGYSSPSMRPDVSSPPSSSSTATTGPPPKLCLVCSDEASGCHYGVLTCGSCKVFFKRAVEGQHNYLCAGRNDCIIDKIRRKNCPACRYRKCLQAGMNLEARKTKKKIKGIQQATTGVSQETSENPGNKTIVPATLPQLTPTLVSLLEVIEPEVLYAGYDSSVPDSTWRIMTTLNMLGGRQVIAAVKWAKAIPGFRNLHLDDQMTLLQYSWMFLMAFALGWRSYRQSSANLLCFAPDLIINEQRMTLPCMYDQCKHMLYVSSELHRLQVSYEEYLCMKTLLLLSSVPKDGLKSQELFDEIRMTYIKELGKAIVKREGNSSQNWQRFYQLTKLLDSMHEVVENLLNYCFQTFLDKTMSIEFPEMLAEIITNQIPKYSNGNIKKLLFHQK
fold induction of NanoBiT luminescence versus solvent [1]: ~6 fold | fold induction of NanoBiT luminescence versus solvent [2]: ~8 fold
